# From patent US20100260668A1 (published 2010)
# Molecular target: T1, VEGF (UniProt P15692-4 27-191)
# T1 construct: Bought reagent; also called vascular endothelial growth factor
# Test: BIACORE SPR
# T1 sequence (P15692 other isoform, or with tags, fused parts or gaps limits assumed): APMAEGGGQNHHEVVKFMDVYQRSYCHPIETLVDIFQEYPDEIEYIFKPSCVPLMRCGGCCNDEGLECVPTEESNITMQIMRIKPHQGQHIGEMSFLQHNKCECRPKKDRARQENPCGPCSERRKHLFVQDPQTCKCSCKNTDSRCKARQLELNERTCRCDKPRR
Kd [pM],koff [s⁻¹],kon [M⁻¹ s⁻¹],Binder
271,0.000136,504000,"DVD448 (bispecific antibody, human IgG1, kappa, DVD-Ig; N-term; AB014 (VEGF), C-term; AB069 (DLL4); HC linker long, LC linker long; also called DVD448H; DVD448L) heavy: not shown light: DIQMTQSPSSLSASVGDRVTITCSASQDISNYLNWYQQKPGKAPKVLIYFTSSLHSGVPSRFSGSGSGTDFTLTISSLQPEDFATYYCQQYSTVPWTFGQGTKVEIKRTVAAPSVFIFPPDIVMTQSPDSLAVSLGERATISCRASESVDNYGISFMKWFQQKPGQPPKLLIYAASNQGSGVPDRFSGSGSGTDFTLTISSLQAEDVAVYYCQQSKEVPWTFGGGTKVEIKRTVAAPSVFIFPPSDEQLKSGTASVVCLLNNFYPREAKVQWKVDNALQSGNSQESVTEQDSKDSTYSLSSTLTLSKADYEKHKVYACEVTHQGLSSPVTKSFNRGEC"
201,0.00024,1.2e+06,"DVD470 (bispecific antibody, human IgG1, kappa, DVD-Ig; N-term; AB014 (VEGF), C-term; AB015 (DLL4); HC linker long, LC linker long; also called DVD470H; DVD470L) heavy: not shown light: DIQMTQSPSSLSASVGDRVTITCSASQDISNYLNWYQQKPGKAPKVLIYFTSSLHSGVPSRFSGSGSGTDFTLTISSLQPEDFATYYCQQYSTVPWTFGQGTKVEIKRTVAAPSVFIFPPDIQMTQSPSSLSASVGDRVTITCRASQDVSTAVAWYQQKPGKAPKLLIYSASFLYSGVPSRFSGSGSGTDFTLTISSLQPEDFATTYYCQQSYTGTVTFGQGTKVEIKRTVAAPSVFIFPPSDEQLKSGTASVVCLLNNFYPREAKVQWKVDNALQSGNSQESVTEQDSKDSTYSLSSTLTLSKADYEKHKVYACEVTHQGLSSPVTKSFNRGEC"
200,0.000138,687000,"DVD482 (bispecific antibody, human IgG1, kappa, DVD-Ig; N-term; AB014 (VEGF), C-term; AB015 (DLL4); HC linker short, LC linker long; also called DVD482H; DVD482L) heavy: not shown light: DIQMTQSPSSLSASVGDRVTITCSASQDISNYLNWYQQKPGKAPKVLIYFTSSLHSGVPSRFSGSGSGTDFTLTISSLQPEDFATYYCQQYSTVPWTFGQGTKVEIKRTVAAPSVFIFPPDIQMTQSPSSLSASVGDRVTITCRASQDVSTAVAWYQQKPGKAPKLLIYSASFLYSGVPSRFSGSGSGTDFTLTISSLQPEDFATTYYCQQSYTGTVTFGQGTKVEIKRTVAAPSVFIFPPSDEQLKSGTASVVCLLNNFYPREAKVQWKVDNALQSGNSQESVTEQDSKDSTYSLSSTLTLSKADYEKHKVYACEVTHQGLSSPVTKSFNRGEC"
74.6,0.000125,1.68e+06,"DVD043 (bispecific antibody, human IgG1, kappa, DVD-Ig; N-term; AB014 (VEGF), C-term; AB015 (DLL4); HC linker short, LC linker short; also called DVD043H; DVD043L) heavy: not shown light: DIQMTQSPSSLSASVGDRVTITCSASQDISNYLNWYQQKPGKAPKVLIYFTSSLHSGVPSRFSGSGSGTDFTLTISSLQPEDFATYYCQQYSTVPWTFGQGTKVEIKRTVAAPDIQMTQSPSSLSASVGDRVTITCRASQDVSTAVAWYQQKPGKAPKLLIYSASFLYSGVPSRFSGSGSGTDFTLTISSLQPEDFATTYYCQQSYTGTVTFGQGTKVEIKRTVAAPSVFIFPPSDEQLKSGTASVVCLLNNFYPREAKVQWKVDNALQSGNSQESVTEQDSKDSTYSLSSTLTLSKADYEKHKVYACEVTHQGLSSPVTKSFNRGEC"
28.1,4.74e-05,1.69e+06,"DVD476 (bispecific antibody, human IgG1, kappa, DVD-Ig; N-term; AB014 (VEGF), C-term; AB015 (DLL4); HC linker long, LC linker short; also called DVD476H; DVD476L) heavy: not shown light: DIQMTQSPSSLSASVGDRVTITCSASQDISNYLNWYQQKPGKAPKVLIYFTSSLHSGVPSRFSGSGSGTDFTLTISSLQPEDFATYYCQQYSTVPWTFGQGTKVEIKRTVAAPDIQMTQSPSSLSASVGDRVTITCRASQDVSTAVAWYQQKPGKAPKLLIYSASFLYSGVPSRFSGSGSGTDFTLTISSLQPEDFATTYYCQQSYTGTVTFGQGTKVEIKRTVAAPSVFIFPPSDEQLKSGTASVVCLLNNFYPREAKVQWKVDNALQSGNSQESVTEQDSKDSTYSLSSTLTLSKADYEKHKVYACEVTHQGLSSPVTKSFNRGEC"
88,0.00017,1.93e+06,"DVD442 (bispecific antibody, human IgG1, kappa, DVD-Ig; N-term; AB014 (VEGF), C-term; AB069 (DLL4); HC linker short, LC linker short; also called DVD442H; DVD442L) heavy: not shown light: DIQMTQSPSSLSASVGDRVTITCSASQDISNYLNWYQQKPGKAPKVLIYFTSSLHSGVPSRFSGSGSGTDFTLTISSLQPEDFATYYCQQYSTVPWTFGQGTKVEIKRTVAAPDIVMTQSPDSLAVSLGERATISCRASESVDNYGISFMKWFQQKPGQPPKLLIYAASNQGSGVPDRFSGSGSGTDFTLTISSLQAEDVAVYYCQQSKEVPWTFGGGTKVEIKRTVAAPSVFIFPPSDEQLKSGTASVVCLLNNFYPREAKVQWKVDNALQSGNSQESVTEQDSKDSTYSLSSTLTLSKADYEKHKVYACEVTHQGLSSPVTKSFNRGEC"
79,0.000126,1.59e+06,"DVD454 (bispecific antibody, human IgG1, kappa, DVD-Ig; N-term; AB014 (VEGF), C-term; AB069 (DLL4); HC linker long, LC linker short; also called DVD454H; DVD454L) heavy: not shown light: DIQMTQSPSSLSASVGDRVTITCSASQDISNYLNWYQQKPGKAPKVLIYFTSSLHSGVPSRFSGSGSGTDFTLTISSLQPEDFATYYCQQYSTVPWTFGQGTKVEIKRTVAAPDIVMTQSPDSLAVSLGERATISCRASESVDNYGISFMKWFQQKPGQPPKLLIYAASNQGSGVPDRFSGSGSGTDFTLTISSLQAEDVAVYYCQQSKEVPWTFGGGTKVEIKRTVAAPSVFIFPPSDEQLKSGTASVVCLLNNFYPREAKVQWKVDNALQSGNSQESVTEQDSKDSTYSLSSTLTLSKADYEKHKVYACEVTHQGLSSPVTKSFNRGEC"

# Molecular target: T2, VEGF (UniProt P15692-4 27-191)
# T2 construct: Bought reagent; also called vascular endothelial growth factor
# Test: SPR (Biacore), DVD-Ig captured, VEGF in solution
# T2 sequence (P15692 other isoform, or with tags, fused parts or gaps limits assumed): as the sequence (P15692 other isoform, or with tags, fused parts or gaps limits assumed) above
Kd [pM],koff [s⁻¹],kon [M⁻¹ s⁻¹],Binder
189,0.000169,894000,"DVD490 (bispecific antibody, human IgG1, kappa, DVD-Ig; N-term; VD AB070 (VEGF), C-term; VD AB072 (DLL4); HC linker short, LC linker short; also called DVD490H; DVD490L) heavy: not shown light: DIQMTQSPSSLSASVGDRVTITCRASQDVSTAVAWYQQKPGKAPKLLIYSASFLYSGVPSRFSGSGSGTDFTLTISSLQPEDFATYYCQQSYTTPPTFGQGTKVEIKRTVAAPDIQMTQSSSYLSVSLGGRVTITCKASDHINNWLAWYQQKPGNAPRLLISGATSLETGVPSRFSGSGSGKDYTLSITSLQTEDVATYYCQQYWSIPLTFGAGTKLELKRTVAAPSVFIFPPSDEQLKSGTASVVCLLNNFYPREAKVQWKVDNALQSGNSQESVTEQDSKDSTYSLSSTLTLSKADYEKHKVYACEVTHQGLSSPVTKSFNRGEC"
265,0.000231,871000,"DVD502 (bispecific antibody, human IgG1, kappa, DVD-Ig; N-term; VD AB070 (VEGF), C-term; VD AB072 (DLL4); HC linker long, LC linker short; also called DVD502H; DVD502L) heavy: not shown light: DIQMTQSPSSLSASVGDRVTITCRASQDVSTAVAWYQQKPGKAPKLLIYSASFLYSGVPSRFSGSGSGTDFTLTISSLQPEDFATYYCQQSYTTPPTFGQGTKVEIKRTVAAPDIQMTQSSSYLSVSLGGRVTITCKASDHINNWLAWYQQKPGNAPRLLISGATSLETGVPSRFSGSGSGKDYTLSITSLQTEDVATYYCQQYWSIPLTFGAGTKLELKRTVAAPSVFIFPPSDEQLKSGTASVVCLLNNFYPREAKVQWKVDNALQSGNSQESVTEQDSKDSTYSLSSTLTLSKADYEKHKVYACEVTHQGLSSPVTKSFNRGEC"
817,0.000961,1.18e+06,"DVD520 (bispecific antibody, human IgG1, kappa, lambda, DVD-Ig; N-term; VD AB070 (VEGF), C-term; VD AB073 (DLL4); HC linker long, LC linker long; also called DVD520H; DVD520L) heavy: not shown light: DIQMTQSPSSLSASVGDRVTITCRASQDVSTAVAWYQQKPGKAPKLLIYSASFLYSGVPSRFSGSGSGTDFTLTISSLQPEDFATYYCQQSYTTPPTFGQGTKVEIKRTVAAPSVFIFPPQAVVTQESALTTSPGETVTLTCRSSTGAVTTSNYANWVQEKPDHLFTGLIGGTNNRAPGVPARFSGSLIGDKAALTITGAQTEDEAIYFCALWYSNHWVFGGGTKLTVLGQPKAAPSVTLFPPSSEELQANKATLVCLISDFYPGAVTVAWKADSSPVKAGVETTTPSKQSNNKYAASSYLSLTPEQWKSHRSYSCQVTHEGSTVEKTVAPTECS"
276,0.0123,4.47e+07,"DVD532 (bispecific antibody, human IgG1, kappa, lambda, DVD-Ig; N-term; VD AB070 (VEGF), C-term; VD AB073 (DLL4); HC linker short, LC linker long; also called DVD532H; DVD532L) heavy: not shown light: DIQMTQSPSSLSASVGDRVTITCRASQDVSTAVAWYQQKPGKAPKLLIYSASFLYSGVPSRFSGSGSGTDFTLTISSLQPEDFATYYCQQSYTTPPTFGQGTKVEIKRTVAAPSVFIFPPQAVVTQESALTTSPGETVTLTCRSSTGAVTTSNYANWVQEKPDHLFTGLIGGTNNRAPGVPARFSGSLIGDKAALTITGAQTEDEAIYFCALWYSNHWVFGGGTKLTVLGQPKAAPSVTLFPPSSEELQANKATLVCLISDFYPGAVTVAWKADSSPVKAGVETTTPSKQSNNKYAASSYLSLTPEQWKSHRSYSCQVTHEGSTVEKTVAPTECS"
1010,0.000549,541000,"DVD514 (bispecific antibody, human IgG1, lambda, DVD-Ig; N-term; VD AB070 (VEGF), C-term; VD AB073 (DLL4); HC linker short, LC linker short; also called DVD514H; DVD514L) heavy: not shown light: DIQMTQSPSSLSASVGDRVTITCRASQDVSTAVAWYQQKPGKAPKLLIYSASFLYSGVPSRFSGSGSGTDFTLTISSLQPEDFATYYCQQSYTTPPTFGQGTKVEIKRTVAAPQAVVTQESALTTSPGETVTLTCRSSTGAVTTSNYANWVQEKPDHLFTGLIGGTNNRAPGVPARFSGSLIGDKAALTITGAQTEDEAIYFCALWYSNHWVFGGGTKLTVLGQPKAAPSVTLFPPSSEELQANKATLVCLISDFYPGAVTVAWKADSSPVKAGVETTTPSKQSNNKYAASSYLSLTPEQWKSHRSYSCQVTHEGSTVEKTVAPTECS"
675,0.000801,1.19e+06,"DVD526 (bispecific antibody, human IgG1, lambda, DVD-Ig; N-term; VD AB070 (VEGF), C-term; VD AB073 (DLL4); HC linker long, LC linker short; also called DVD526H; DVD526L) heavy: not shown light: DIQMTQSPSSLSASVGDRVTITCRASQDVSTAVAWYQQKPGKAPKLLIYSASFLYSGVPSRFSGSGSGTDFTLTISSLQPEDFATYYCQQSYTTPPTFGQGTKVEIKRTVAAPQAVVTQESALTTSPGETVTLTCRSSTGAVTTSNYANWVQEKPDHLFTGLIGGTNNRAPGVPARFSGSLIGDKAALTITGAQTEDEAIYFCALWYSNHWVFGGGTKLTVLGQPKAAPSVTLFPPSSEELQANKATLVCLISDFYPGAVTVAWKADSSPVKAGVETTTPSKQSNNKYAASSYLSLTPEQWKSHRSYSCQVTHEGSTVEKTVAPTECS"
311,0.00658,2.12e+07,"DVD496 (bispecific antibody, human IgG1, kappa, DVD-Ig; N-term; VD AB070 (VEGF), C-term; VD AB072 (DLL4); HC linker long, LC linker long; also called DVD496H; DVD496L) heavy: not shown light: DIQMTQSPSSLSASVGDRVTITCRASQDVSTAVAWYQQKPGKAPKLLIYSASFLYSGVPSRFSGSGSGTDFTLTISSLQPEDFATYYCQQSYTTPPTFGQGTKVEIKRTVAAPSVFIFPPDIQMTQSSSYLSVSLGGRVTITCKASDHINNWLAWYQQKPGNAPRLLISGATSLETGVPSRFSGSGSGKDYTLSITSLQTEDVATYYCQQYWSIPLTFGAGTKLELKRTVAAPSVFIFPPSDEQLKSGTASVVCLLNNFYPREAKVQWKVDNALQSGNSQESVTEQDSKDSTYSLSSTLTLSKADYEKHKVYACEVTHQGLSSPVTKSFNRGEC"
162,0.000213,1.31e+06,"DVD508 (bispecific antibody, human IgG1, kappa, DVD-Ig; N-term; VD AB070 (VEGF), C-term; VD AB072 (DLL4); HC linker short, LC linker long; also called DVD508H; DVD508L) heavy: not shown light: DIQMTQSPSSLSASVGDRVTITCRASQDVSTAVAWYQQKPGKAPKLLIYSASFLYSGVPSRFSGSGSGTDFTLTISSLQPEDFATYYCQQSYTTPPTFGQGTKVEIKRTVAAPSVFIFPPDIQMTQSSSYLSVSLGGRVTITCKASDHINNWLAWYQQKPGNAPRLLISGATSLETGVPSRFSGSGSGKDYTLSITSLQTEDVATYYCQQYWSIPLTFGAGTKLELKRTVAAPSVFIFPPSDEQLKSGTASVVCLLNNFYPREAKVQWKVDNALQSGNSQESVTEQDSKDSTYSLSSTLTLSKADYEKHKVYACEVTHQGLSSPVTKSFNRGEC"
